T1: APBA2_1, Q99767
T1 sequence (Q99767 563-664, limits assumed, looked up): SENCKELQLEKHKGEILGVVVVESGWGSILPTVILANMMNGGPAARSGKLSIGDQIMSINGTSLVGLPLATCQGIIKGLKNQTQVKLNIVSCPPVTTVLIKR

T2: DFNB31_1, Q9P202
T2 sequence (Q9P202 135-233, limits assumed, looked up): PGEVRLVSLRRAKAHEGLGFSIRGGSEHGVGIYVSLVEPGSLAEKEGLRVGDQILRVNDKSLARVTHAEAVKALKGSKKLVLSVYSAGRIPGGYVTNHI

T3: DVL3, Q92997
T3 sequence (Q92997 244-331, limits assumed, looked up): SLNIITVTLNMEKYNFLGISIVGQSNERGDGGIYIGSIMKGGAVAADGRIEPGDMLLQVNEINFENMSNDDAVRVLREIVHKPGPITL

T4: GRIP1_2, Q9Y3R0
T4 sequence (Q9Y3R0 145-248, limits assumed, looked up): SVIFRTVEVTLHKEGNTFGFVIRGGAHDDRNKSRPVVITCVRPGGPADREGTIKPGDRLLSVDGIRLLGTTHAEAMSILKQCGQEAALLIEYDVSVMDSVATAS

T5: GRIP1_3, Q9Y3R0
T5 sequence (Q9Y3R0 247-346, limits assumed, looked up): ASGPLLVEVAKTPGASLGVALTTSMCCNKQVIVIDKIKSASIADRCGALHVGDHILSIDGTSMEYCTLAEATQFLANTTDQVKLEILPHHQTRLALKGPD

T6: LRRC7, Q96NW7
T6 sequence (Q96NW7 1440-1537, limits assumed, looked up): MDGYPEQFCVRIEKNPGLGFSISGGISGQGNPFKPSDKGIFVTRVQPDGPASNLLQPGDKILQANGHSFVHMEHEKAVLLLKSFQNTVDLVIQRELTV

T7: MPDZ_12, O75970
T7 sequence (O75970 1857-1958, limits assumed, looked up): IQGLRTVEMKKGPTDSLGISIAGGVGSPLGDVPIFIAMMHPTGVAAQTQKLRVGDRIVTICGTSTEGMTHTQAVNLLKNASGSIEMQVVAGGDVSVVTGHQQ

T8: PDZRN3_1, Q9UPQ7
T8 sequence (Q9UPQ7 244-349, limits assumed, looked up): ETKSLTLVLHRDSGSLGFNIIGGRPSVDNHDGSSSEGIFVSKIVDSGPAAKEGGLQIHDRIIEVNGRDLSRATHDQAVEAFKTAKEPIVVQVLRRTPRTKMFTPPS

T9: RADIL, Q96JH8
T9 sequence (Q96JH8 971-1071, limits assumed, looked up): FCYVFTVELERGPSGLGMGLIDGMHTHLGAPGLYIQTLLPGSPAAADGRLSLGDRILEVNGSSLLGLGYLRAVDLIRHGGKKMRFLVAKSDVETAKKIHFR

T10: RHPN1, Q8TCX5
T10 sequence (Q8TCX5 508-602, limits assumed, looked up): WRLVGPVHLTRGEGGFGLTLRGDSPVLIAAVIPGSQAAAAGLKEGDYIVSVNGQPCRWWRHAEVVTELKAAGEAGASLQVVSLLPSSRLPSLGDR

T11: SNTB1, Q13884
T11 sequence (Q13884 107-205, limits assumed, looked up): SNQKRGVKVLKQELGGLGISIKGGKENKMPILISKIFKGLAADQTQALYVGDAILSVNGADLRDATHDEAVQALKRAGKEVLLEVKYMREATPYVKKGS

T12: SNTG2, Q9NY99
T12 sequence (Q9NY99 68-166, limits assumed, looked up): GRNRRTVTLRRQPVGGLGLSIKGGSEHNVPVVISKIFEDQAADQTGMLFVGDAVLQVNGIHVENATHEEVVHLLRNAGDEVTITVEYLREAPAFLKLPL


Columns and labels:
Experiment in all cases: holdup assay
Set-up in all cases: key: below the threshold = too weak to quantify, mostly under pKd 3.1 to 4
Details in all cases: plain residues with an end cap or a label only (N-terminal biotin on a linker: ado-ado)
AHNAK1, Q09666 = biological target: AHNAK1, Q09666
APBA2_1, Q99767 = biological target: T1, APBA2_1, Q99767
ARHGEF12, Q9NZN5-2 = biological target: ARHGEF12, Q9NZN5-2
DFNB31_1, Q9P202 = biological target: T2, DFNB31_1, Q9P202
DLG1_2, Q12959 = biological target: DLG1_2, Q12959
DLG2_3, Q15700 = biological target: DLG2_3, Q15700
DLG4_3, P78352 = biological target: DLG4_3, P78352
DVL3, Q92997 = biological target: T3, DVL3, Q92997
GRIP1_2, Q9Y3R0 = biological target: T4, GRIP1_2, Q9Y3R0
GRIP1_3, Q9Y3R0 = biological target: T5, GRIP1_3, Q9Y3R0
Inadl_10, Q8NI35 = biological target: Inadl_10, Q8NI35
Inadl_4, Q8NI35 = biological target: Inadl_4, Q8NI35
LRRC7, Q96NW7 = biological target: T6, LRRC7, Q96NW7
MAGI2_3, Q86UL8 = biological target: MAGI2_3, Q86UL8
MAGI2_5, Q86UL8 = biological target: MAGI2_5, Q86UL8
MPDZ_12, O75970 = biological target: T7, MPDZ_12, O75970
NHERF4_2, Q86UT5 = biological target: NHERF4_2, Q86UT5
PARD3_3, Q8TEW0 = biological target: PARD3_3, Q8TEW0
PDZRN3_1, Q9UPQ7 = biological target: T8, PDZRN3_1, Q9UPQ7
RADIL, Q96JH8 = biological target: T9, RADIL, Q96JH8
RHPN1, Q8TCX5 = biological target: T10, RHPN1, Q8TCX5
SCRIB_1, Q14160 = biological target: SCRIB_1, Q14160
SCRIB_3, Q14160 = biological target: SCRIB_3, Q14160
SNTB1, Q13884 = biological target: T11, SNTB1, Q13884
SNTG2, Q9NY99 = biological target: T12, SNTG2, Q9NY99

Chain of Inadl_10, Q8NI35 (Q8NI35 1673-1763): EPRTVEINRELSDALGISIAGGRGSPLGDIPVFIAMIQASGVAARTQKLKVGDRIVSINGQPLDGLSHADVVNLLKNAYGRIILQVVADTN
Chain of MAGI2_5, Q86UL8 (Q86UL8 915-1017): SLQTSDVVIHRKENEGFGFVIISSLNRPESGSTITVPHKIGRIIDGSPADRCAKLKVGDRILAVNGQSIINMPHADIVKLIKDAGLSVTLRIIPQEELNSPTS
Chain of Inadl_4, Q8NI35 (Q8NI35 547-651): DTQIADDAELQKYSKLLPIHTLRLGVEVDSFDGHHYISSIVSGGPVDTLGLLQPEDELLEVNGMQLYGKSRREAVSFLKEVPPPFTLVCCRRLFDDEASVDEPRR
Chain of MAGI2_3, Q86UL8 (Q86UL8 600-682): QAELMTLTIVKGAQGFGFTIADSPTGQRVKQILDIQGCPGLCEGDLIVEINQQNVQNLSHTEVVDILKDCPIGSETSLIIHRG
Chain of NHERF4_2, Q86UT5 (Q86UT5 220-308): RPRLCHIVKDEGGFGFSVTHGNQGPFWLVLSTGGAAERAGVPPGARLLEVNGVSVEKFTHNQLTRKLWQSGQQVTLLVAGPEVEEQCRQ
Chain of ARHGEF12, Q9NZN5-2 (Q9NZN5 other isoform, or with tags, fused parts or gaps): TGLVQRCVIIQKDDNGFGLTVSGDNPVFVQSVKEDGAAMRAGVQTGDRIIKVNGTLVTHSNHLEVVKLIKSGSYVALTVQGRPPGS
Chain of SCRIB_1, Q14160 (Q14160 718-814): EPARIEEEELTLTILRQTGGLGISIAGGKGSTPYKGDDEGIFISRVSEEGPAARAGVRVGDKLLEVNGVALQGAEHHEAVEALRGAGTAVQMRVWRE
Chain of SCRIB_3, Q14160 (Q14160 999-1103): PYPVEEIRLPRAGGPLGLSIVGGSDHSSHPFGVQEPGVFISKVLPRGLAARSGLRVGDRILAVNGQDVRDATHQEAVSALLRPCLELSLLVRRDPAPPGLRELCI
Chain of DLG1_2, Q12959 (Q12959 314-412): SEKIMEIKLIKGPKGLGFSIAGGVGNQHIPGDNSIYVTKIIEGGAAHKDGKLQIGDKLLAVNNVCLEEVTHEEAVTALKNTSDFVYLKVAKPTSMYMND
Chain of PARD3_3, Q8TEW0 (Q8TEW0 582-685): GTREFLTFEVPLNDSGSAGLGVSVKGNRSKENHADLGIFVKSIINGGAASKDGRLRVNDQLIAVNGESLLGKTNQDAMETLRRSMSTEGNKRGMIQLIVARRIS
Chain of AHNAK1, Q09666 (Q09666 4-100): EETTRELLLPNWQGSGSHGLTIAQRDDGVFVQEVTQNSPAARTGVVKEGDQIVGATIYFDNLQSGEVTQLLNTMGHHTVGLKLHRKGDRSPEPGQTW
Chain of DLG4_3, P78352 (P78352 306-403): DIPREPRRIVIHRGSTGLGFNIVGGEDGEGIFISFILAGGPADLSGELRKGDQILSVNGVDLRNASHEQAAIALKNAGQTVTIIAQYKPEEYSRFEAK

| pKd (AHNAK1, Q09666) | pKd (APBA2_1, Q99767) | pKd (ARHGEF12, Q9NZN5-2) | pKd (DFNB31_1, Q9P202) | pKd (DLG1_2, Q12959) | pKd (DLG2_3, Q15700) | pKd (DLG4_3, P78352) | pKd (DVL3, Q92997) | pKd (GRIP1_2, Q9Y3R0) | pKd (GRIP1_3, Q9Y3R0) | pKd (Inadl_10, Q8NI35) | pKd (Inadl_4, Q8NI35) | pKd (LRRC7, Q96NW7) | pKd (MAGI2_3, Q86UL8) | pKd (MAGI2_5, Q86UL8) | pKd (MPDZ_12, O75970) | pKd (NHERF4_2, Q86UT5) | pKd (PARD3_3, Q8TEW0) | pKd (PDZRN3_1, Q9UPQ7) | pKd (RADIL, Q96JH8) | Binder | also measured |
| --- | --- | --- | --- | --- | --- | --- | --- | --- | --- | --- | --- | --- | --- | --- | --- | --- | --- | --- | --- | --- | --- |
| below the threshold | below the threshold | 4.87 | 3.58 | 5.91 | 4.58 | 4.5 | below the threshold | below the threshold | below the threshold | below the threshold | below the threshold | 3.48 | 3.57 | 3.63 | below the threshold | below the threshold | below the threshold | 3.52 | 4.14 | ATKDKKITTV [EXOC4, Q96A65] | pKd (RHPN1, Q8TCX5): 4.08; pKd (SCRIB_1, Q14160): 3.85; pKd (SCRIB_3, Q14160): 3.84; pKd (SNTB1, Q13884): 4.34; pKd (SNTG2, Q9NY99): 3.92 |
| below the threshold | below the threshold | 4.63 | 4.39 | 4.98 | 4.54 | 4.43 | below the threshold | below the threshold | below the threshold | below the threshold | below the threshold | 3.49 | 3.61 | 4.38 | below the threshold | below the threshold | below the threshold | 4.17 | below the threshold | FHSIKQSTAV [CRHR1, P34998] | pKd (RHPN1, Q8TCX5): 3.79; pKd (SCRIB_1, Q14160): 4.01; pKd (SCRIB_3, Q14160): 4.43; pKd (SNTB1, Q13884): 3.75; pKd (SNTG2, Q9NY99): 3.6 |
| below the threshold | below the threshold | below the threshold | below the threshold | below the threshold | 3.82 | below the threshold | below the threshold | below the threshold | below the threshold | below the threshold | below the threshold | below the threshold | below the threshold | below the threshold | 3.52 | below the threshold | below the threshold | below the threshold | below the threshold | GSQSQVETEA [FKBP4, Q02790] | pKd (RHPN1, Q8TCX5): 3.77; pKd (SCRIB_1, Q14160): below the threshold; pKd (SCRIB_3, Q14160): 4.04; pKd (SNTB1, Q13884): below the threshold; pKd (SNTG2, Q9NY99): below the threshold |
